Measured values reported in article PMC2195602 (The Journal of Experimental Medicine, 1999).

What was measured:
[1] = target: T1, human FcγRIIa (CD32) expressed on transfected COS-7 cells (human, UniProt P12318 34-317); assay: flow cytometry on cells
T1 sequence (looked up): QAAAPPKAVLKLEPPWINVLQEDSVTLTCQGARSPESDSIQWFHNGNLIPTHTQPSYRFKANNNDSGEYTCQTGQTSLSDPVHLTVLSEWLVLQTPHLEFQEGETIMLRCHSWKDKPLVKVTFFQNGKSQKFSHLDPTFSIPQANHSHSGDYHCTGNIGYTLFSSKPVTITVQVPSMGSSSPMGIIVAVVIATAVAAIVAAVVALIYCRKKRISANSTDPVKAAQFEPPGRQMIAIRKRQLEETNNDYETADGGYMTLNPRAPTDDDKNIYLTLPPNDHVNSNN

[2] = target: FcγRII (CD32) on K-562 cells (human (endogenous in K-562)) (UniProt P12318); assay: flow cytometry on cells

Kd [1]: 66 nM
Kd [2]: 97 nM
B1: C-reactive protein (CRP), human (natural protein, UniProt P02741 19-224, looked up)
chain: QTDMSRKAFVFPKESDTSYVSLKAPLTKPLKAFTVCLHFYTELSSTRGYSIFSYATKRQDNEILIFWSKDIGYSFTVGGSEILFEVPEVTVAPVHICTSWESASGIVEFWVDGKPRVRKSLKKGYTVGAEASIILGQEQDSFGGNFEGSQSLVGDIGNVNMWDFVLSPDEINTIYLGGPFSPNVLNWRALKYEVQGEVFTKPQLWP
